Experimental data reported in patent US20240261333A1, “NOVEL TARGETS FOR ENHANCING ANTI-TUMOR IMMUNITY” (THE BROAD INSTITUTE, INC., priority 2021, published 2024).

T1: B3GNT2 (Homo sapiens, UniProt Q9NY97)
T1 construct: The respective ORFs of candidate genes [CD274 (NM_014143), MCL1 (NM_021960), JUNB (NM_002229), and B3GNT2 (NM_006577)] were synthesized; expressed in transfected cells; host or cells: A375 melanoma cells (lentiviral ORF overexpression)
T1 sequence (Q9NY97 1-397): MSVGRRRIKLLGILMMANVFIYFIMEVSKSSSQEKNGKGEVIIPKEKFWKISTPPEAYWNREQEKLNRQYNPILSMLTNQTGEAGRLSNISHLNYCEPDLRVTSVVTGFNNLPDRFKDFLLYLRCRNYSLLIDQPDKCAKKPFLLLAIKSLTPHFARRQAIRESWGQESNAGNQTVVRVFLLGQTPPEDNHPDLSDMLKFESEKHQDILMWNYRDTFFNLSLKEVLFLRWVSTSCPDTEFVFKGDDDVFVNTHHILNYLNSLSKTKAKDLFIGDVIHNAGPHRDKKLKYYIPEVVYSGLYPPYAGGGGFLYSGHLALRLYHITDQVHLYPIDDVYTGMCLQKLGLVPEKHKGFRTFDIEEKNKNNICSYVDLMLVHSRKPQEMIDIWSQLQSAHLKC

B1: IL13RA2 (protein)
chain: DTEIKVNPPQDFEIVDPGYLGYLYLQWQPPLSLDHFKECTVEYELKYRNIGSETWKTIITKNLHYKDGFDLNKGIEAKIHTLLPWQCTNGSEVQSSWAETTYWISPQGIPETKVQDMDCVYYNWQYLLCSWKPGIGVLLDTNYNLFYWYEGLDHALQCVDYIKADGQNIGCRFPYLEASDYKDFYICVNGSSENKPIRSSYFTFQLQNIVKPLPPVYLTFTRESSCEIKLKWSIPLGPIPARCFDYEIEIREDDTTLVTATVENETYTLKTTNETRQLCFVVRSKVNIYCSDDGIWSEWSDKQCWEGEDLSKKTLLRFWLPFGFILILVIFVTGLLLRKPNTYPKMIPEFFCDT
B2: TAGLN (protein)
chain: ANKGPSYGMSREVQSKIEKKYDEELEERLVEWIIVQCGPDVGRPDRGRLGFQVWLKNGVILSKLVNSLYPDGSKPVKVPENPPSMVFKQMEQVAQFLKAAEDYGVIKTDMFQTVDLFEGKDMAAVQRTLMALGSLAVTKNDGHYRGDPNWFMKKAQEHKREFTESQLQEGKHVIGLQMGSNRGASQAGMTGYGRPRQIIS
B3: TXN (protein)
chain: VKQIESKTAFQEALDAAGDKLVVVDFSATWCGPCKMIKPFFHSLSEKYSNVIFLEVDVDDCQDVASECEVKCMPTFQFFKKGQKVGEFSGANKEKLEATINELV
B4: KCTD5 (protein)
chain: AENHCELLSPARGGIGAGLGGGLCRRCSAGLGALAQRPGSVSKWVRLNVGGTYFLTTRQTLCRDPKSFLYRLCQADPDLDSDKDETGAYLIDRDPTYFGPVLNYLRHGKLVINKDLAEEGVLEEAEFYNITSLIKLVKDKIRERDSKTSQVPVKHVYRVLQCQEEELTQMVSTMSDGWKFEQLVSIGSSYNYGNEDQAEFLCVVSKELHNTPYGTASEPSEKAKILQERGSRM
B5: PBXIP1 (protein)
chain: MDPESERALQAPHSPSKTDGKELAGTMDGEGTLFQTESPQSGSILTEETEVKGTLEGDVCGVEPPGPGDTVVQGDLQETTVVTGLGPDTQDLEGQSPPQSLPSTPKAAWIREEGRCSSSDDDTDVDMEGLRRRRGREAGPPQPMVPLAVENQAGGEGAGGELGISLNMCLLGALVLLGLGVLLFSGGLSESETGPMEEVERQVLPDPEVLEAVGDRQDGLREQLQAPVPPDSVPSLQNMGLLLDKLAKENQDIRLLQAQLQAQKEELQSLMHQPKGLEEENAQLRGALQQGEAFQRALESELQQLRARLQGLEADCVRGPDGVCLSGGRGPQGDKAIREQGPREQEPELSFLKQKEQLEAEAQALRQELERQRRLLGSVQQDLERSLQDASRGDPAHAGLAELGHRLAQKLQGLENWGQDPGVSANASKAWHQKSHFQNSREWSGKEKWWDGQRDRKAEHWKHKKEESGRERKKNWGGQEDREPAGRWKEGRPRVEESGSKKEGKRQGPKEPPRKSGSFHSSGEKQKQPRWREGTKDSHDPLPSWAELLRPKYRAPQGCSGVDECARQEGLTFFGTELAPVRQQELASLLRTYLARLPWAGQLTKELPLSPAFFGEDGIFRHDRLRFRDFVDALEDSLEEVAVQQTGDDDEVDDFEDFIFSHFFGDKALKKRSGKKDKHSQSPRAAGPREGHSHSHHHHHRG
B6: IMMT (protein)
chain: STSGSSGLTTGKIAGAGLLFVGGGIGGTILYAKWDSHFRESVEKTIPYSDKLFEMVLGPAAYNVPLPKKSIQSGPLKISSVSEVMKESKQPASQLQKQKGDTPASATAPTEAAQIISAAGDTLSVPAPAVQPEESLKTDHPEIGEGKPTPALSEASSSSIRERPPEEVAARLAQQEKQEQVKIESLAKSLEDALRQTASVTLQAIAAQNAAVQAVNAHSNILKAAMDNSEIAGEKKSAQWRTVEGALKERRKAVDEAADALLKAKEELEKMKSVIENAKKKEVAGAKPHITAAEGKLHNMIVDLDNVVKKVQAAQSEAKVVSQYHELVVQARDDFKRELDSITPEVLPGWKGMSVSDLADKLSTDDLNSLIAHAHRRIDQLNRELAEQKATEKQHITLALEKQKLEEKRAFDSAVAKALEHHRSEIQAEQDRKIEEVRDAMENEMRTQLRRQAAAHTDHLRDVLRVQEQELKSEFEQNLSEKLSEQELQFRRLSQEQVDNFTLDINTAYARLRGIEQAVQSHAVAEEEARKAHQLWLSVEALKYSMKTSSAETPTIPLGSAVEAIKANCSDNEFTQALTAAIPPESLTRGVYSEETLRARFYAVQKLARRVAMIDETRNSLYQYFLSYLQSLLLFPPQQLKPPPELCPEDINTFKLLSYASYCIEHGDLELAAKFVNQLKGESRRVAQDWLKEARMTLETKQIVEILTAYASAVGIGTTQVQPE
B7: POF1B (protein)
chain: MSSSYWSETSSSSCGTQQLPEVLQCQPQHYHCYHQSSQAQQPPEKNVVYERVRTYSGPMNKVVQALDPFNSREVLSPLKTTSSYQNLVWSDHSQELHSPTLKISTCAPSTLHITQNTEQELHSPTVKLTTYPQTTIRKYVVQNPEQEPLSQFLRGSHFFPGNNVIYEKTIRKVEKLNTDQGCHPQAQCHHHIIQQPQVIHSAHWQQPDSSQQIQAITGNNPISTHIGNELCHSGSSQICEQVIIQDDGPEKLDPRYFGELLADLSRKNTDLYHCLLEHLQRIGGSKQDFESTDESEDIESLIPKGLSEFTKQQIRYILQMRGMSDKSLRLVLSTFSNIREELGHLQNDMTSLENDKMRLEKDLSFKDTQLKEYEELLASVRANNHQQQQGLQDSSSKCQALEENNLSLRHTLSDMEYRLKELEYCKRNLEQENQNLRMQVSETCTGPMLQAKMDEIGNHYTEMVKNLRMEKDREICRLRSQLNQYHKDVSKREGSCSDFQFKLHELTSLLEEKDSLIKRQSEELSKLRQEIYSSHNQPSTGGRTTITTKKYRTQYPILGLLYDDYEYIPPGSETQTIVIEKTEDKYTCVSSLGHF
B8: CDSN (protein)
chain: KSIGTFSDPCKDPTRITSPNDPCLTGKGDSSGFSSYSGSSSSGSSISSARSSGGGSSGSSSGSSIAQGGSAGSFKPGTGYSQVSYSSGSGSSLQGASGSSQLGSSSSHSGNSGSHSGSSSSHSSSSSSFQFSSSSFQVGNGSALPTNDNSYRGILNPSQPGQSSSSSQTFGVSSSGQSVSSNQRPCSSDIPDSPCSGGPIVSHSGPYIPSSHSVSGGQRPVVVVVDQHGSGAPGVVQGPPCSNGGLPGKPCPPITSVDKSYGGYEVVGGSSDSYLVPGMTYSKGKIYPVGYFTKENPVKGSPGVPSFAAGPPISEGKYFSSNPIIPSQSAASSAIAFQPVGTGGVQLCGGGSTGSKGPCSPSSSRVPSSSSISSSSGLPYHPCGSASQSPCSPPGTGSFSSSSSSQSSGKIILQPCGSKSSSSGHPCMSVSSLTLTGGPDGSPHPDPSAGAKPCGSSSAGKIPCRSIRDILAQVKPLGPQLADPEVFLPQGELLNSP

Biological target: T1, B3GNT2
Assay: Co-IP of FLAG-tagged B3GNT2 followed by mass spectrometry
Assay type: cell-based
Design: C-term IgG / C-term flag: unit not given here
Conditions: Co-IP followed by mass spectrometry of B3GNT2; for C-term flag / C-term IgG: C-term tag; for C-term flag / N-term FLAG: FLAG pull-down; for C-term IgG / N-term IgG: IgG pull-down; for N-term FLAG / N-term IgG: N-term tag
Method: Cells were plated in 10-cm cell culture dishes and grown to 60-80% confluency. For each condition, two biological replicates were harvested for co-IP. Cells were washed with PBS and 4 mL of lysis buffer (20 mM HEPES, 1% Triton X-100, 150 mM NaCl, 1 mM EDTA, and 10% glycerol) containing protease inhibitor cocktail was added. Cells were scraped and lysate was incubated at 4° C. under rotary agitation for 1 h. Lysate was centrifuged at 14,000×g for 10 min at 4° C. Supernatant was transferred to a new tube and an aliquot was taken as the input. […] For Western blots, 10 μg/mL Chicken Anti-FLAG (Aves labs ET-DY100) and IgY control (R&D Systems AB-101-C) antibodies were biotinylated (Thermo Fisher Scientific 90407) and added to the respective conditions. Lysates with antibodies were incubated at 4° C. under rotary agitation overnight. For each mL of lysate, 50 μL of Pierce Protein A/G Magnetic Beads (Mass spectrometry; Thermo Fisher Scientific 88803) or Pierce Streptavidin Magnetic Beads (Western blot; Thermo Fisher Scientific 88817) was washed twice with lysis buffer. Lysates with antibodies were added to the beads and incubated at 4° C. under rotary agitation for 4 h. Beads were washed with lysis buffer 3 times and resuspended in lysis buffer for storage. […] This solution was subjected to solid phase extraction to concentrate the peptides and remove unwanted reagents followed by injection onto a Shimadzu HPLC with fraction collector. Eight fractions were collected and after concentration were injected on a Waters NanoAcquity HPLC equipped with a self-packed Aeris 3 μm C18 analytical column 0.075 mm by 20 cm, (Phenomenex). Peptides were eluted using standard reverse-phase gradients. The effluent from the column was analyzed using a Thermo Orbitrap Elite mass spectrometer (nanospray configuration) operated in a data dependent manner for 54 minutes. […] Scaffold Q+S (Proteome Software) was used to provide consensus reports for the identified proteins.

Molecule | C-term flag | C-term IgG | N-term FLAG | N-term IgG
B1 | 2 | 0 | 3 | 0
B2 | 3 | 0 | 2 | 0
B3 | 3 | 0 | 3 | 3
B4 | 3 | 0 | 2 | 0
B5 | 4 | 0 | 2 | 0
B6 | 26 | 16 | 23 | 17
B7 | 0 | 0 | 5 | 0
B8 | 0 | 0 | 5 | 0
